Laboratory results: patent US20250320284A1 (AC IMMUNE, published 2025)

T1: CARD domain of human ASC (human, UniProt Q9ULZ3 107-195)
T1 construct: biotinylated in BLI; also called hCARD; human CARD
T1 sequence: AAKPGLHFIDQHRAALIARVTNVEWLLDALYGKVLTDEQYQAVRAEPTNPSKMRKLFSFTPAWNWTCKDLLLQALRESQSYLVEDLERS

T2: mouse ASC (mouse, UniProt Q9EPB4 1-193)
T2 construct: recombinant mASC in ELISA and SPR; endogenous ASC of J774.A1 cells in Western blot and immunofluorescence; also called mASC
T2 sequence: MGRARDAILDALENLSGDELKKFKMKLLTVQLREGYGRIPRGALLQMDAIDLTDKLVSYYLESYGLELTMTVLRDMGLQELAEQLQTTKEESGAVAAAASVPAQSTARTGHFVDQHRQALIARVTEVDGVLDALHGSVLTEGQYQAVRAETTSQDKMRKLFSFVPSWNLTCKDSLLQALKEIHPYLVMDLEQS


Assays:
CARD domain of human ASC [1] = target: T1, CARD domain of human ASC; experiment: sandwich ELISA on MBP-tagged protein captured by anti-MBP antibody, signal as % of hPYD-WT
mouse ASC [2] = target: T2, mouse ASC; experiment: SPR affinity mode, mAb captured;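 note: Single-cycle SPR kinetics with mAbs captured on goat anti-mouse antibody, double-referenced against blank flow cell and buffer cycle, fitted by a 1:1 kinetic model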
[3] = target: T3, human ASC (apoptosis associated speck-like protein containing a caspase-recruitment domain) (human, UniProt Q9ULZ3 1-195); experiment: SPR affinity mode, mAb captured;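 note: Single-cycle SPR kinetics with mAbs captured on goat anti-mouse antibody, double-referenced against blank flow cell and buffer cycle, fitted by a 1:1 kinetic model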
T3 construct: recombinant hASC in ELISA and SPR; endogenous ASC (cytoplasmic or specks) in Western blot and immunofluorescence; also called hASC; PYCARD

PYD domain of human ASC [4] = target: T4, PYD domain of human ASC (human, UniProt Q9ULZ3 1-91, limits assumed); experiment: BLI binning on PYD, competitor 416E6G4-AB1
T4 construct: biotinylated in BLI; His/MBP-tagged in the alanine ELISA; also called hPYD; human PYD

PYD domain of human ASC [5] = target: T4, PYD domain of human ASC; experiment: BLI binning on PYD, competitor 401H9B7-AB1
PYD domain of human ASC [6] = target: T4, PYD domain of human ASC; experiment: BLI binning on PYD, competitor 23E5F7-AB2
PYD domain of human ASC [7] = target: T4, PYD domain of human ASC; experiment: ELISA, coated hPYD;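 note: monoclonal antibody binding to plate-coated human ASC PYD measured by ELISA, with a phosphatase substrate absorbance read-out and EC50 from a variable slope curve fit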
PYD domain of human ASC [8] = target: T4, PYD domain of human ASC; experiment: BLI binning on PYD, competitor 2617C3A8-AB1
PYD domain of human ASC [9] = target: T4, PYD domain of human ASC; experiment: BLI binning on PYD, competitor 22D3A6-AB1
[10] = target: T3, human ASC (apoptosis associated …); experiment: ELISA, coated hASC;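 note: antibody binding to plate-coated recombinant human ASC, read as phosphatase substrate absorbance, EC50 from four-parameter variable-slope fit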
mouse ASC [11] = target: T2, mouse ASC; experiment: cell-based or functional assay
PYD domain of human ASC [12] = target: T4, PYD domain of human ASC; experiment: BLI binning on PYD, competitor 31F10C5-AB1
PYD domain of human ASC [13] = target: T4, PYD domain of human ASC; experiment: BLI binning on PYD, competitor 2610H7D3-AB1
PYD domain of human ASC [14] = target: T4, PYD domain of human ASC; experiment: BLI binning on PYD, competitor 2626B9D3-AB1
PYD domain of human ASC [15] = target: T4, PYD domain of human ASC; experiment: BLI binning on PYD, competitor 26A1G2-AB1
mouse ASC [16] = target: T2, mouse ASC; experiment: ELISA, coated mASC
[17] = target: T3, human ASC (apoptosis associated …); experiment: cell-based or functional assay
mouse ASC [18] = target: T2, mouse ASC; experiment: cell-based or functional assay; remark: listed apart in the source
[19] = target: T3, human ASC (apoptosis associated …); experiment: cell-based or functional assay; remark: listed apart in the source
[20] = target: T3, human ASC (apoptosis associated …); experiment: SPR affinity mode, steady-state fit, apparent KD
CARD domain of human ASC [21] = target: T1, CARD domain of human ASC; experiment: ELISA, coated hCARD
CARD domain of human ASC [22] = target: T1, CARD domain of human ASC; experiment: sandwich ELISA on MBP-tagged protein captured by anti-MBP antibody, signal as % of hPYD-WT; remark: listed apart in the source
[23] = target: T3, human ASC (apoptosis associated …); experiment: SPR avidity mode, ASC immobilized;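 note: Single-cycle SPR kinetics on Biacore T200, antibodies injected at 1.2–100 nM (3-fold steps), 300 s association, 900 s dissociation, double-referenced, 1:1 kinetic model fit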
CARD domain of human ASC [24] = target: T1, CARD domain of human ASC; experiment: sandwich ELISA on MBP-tagged protein captured by anti-MBP antibody, signal as % of hPYD-WT; remark: listed apart in the source
mouse ASC [25] = target: T2, mouse ASC; experiment: SPR affinity mode, mAb captured; SPR affinity mode, mAb captured by Fc, mASC in solution;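 for KD: Single-cycle SPR kinetics with mAbs captured on goat anti-mouse antibody, double-referenced against blank flow cell and buffer cycle, fitted by a 1:1 kinetic model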;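 for koff: Single-cycle SPR kinetics with mAbs captured on goat anti-mouse antibody, double-referenced against blank flow cell and buffer cycle, fitted by a 1:1 kinetic model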
mouse ASC [26] = target: T2, mouse ASC; experiment: ELISA, coated mASC; ELISA on mASC protein
mouse ASC [27] = target: T2, mouse ASC; experiment: SPR avidity mode, ASC immobilized; SPR avidity mode, mASC covalently immobilized, mAb as analyte
mouse ASC [28] = target: T2, mouse ASC; experiment: SPR avidity mode, ASC immobilized;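 note: Single-cycle SPR kinetics on Biacore T200, antibodies injected at 1.2–100 nM (3-fold steps), 300 s association, 900 s dissociation, double-referenced, 1:1 kinetic model fit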

T4 sequence (Q9ULZ3 1-91 limits assumed): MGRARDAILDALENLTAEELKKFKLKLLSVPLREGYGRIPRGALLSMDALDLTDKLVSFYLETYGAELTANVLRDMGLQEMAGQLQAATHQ

Row | Kd (mouse ASC [2]) [nM] | koff (mouse ASC [2]) [s⁻¹] | kon (mouse ASC [2]) [M⁻¹ s⁻¹] | Kd [3] [nM] | koff [3] [s⁻¹] | kon [3] [M⁻¹ s⁻¹] | normalized binding response (PYD domain of human ASC [4]) [%] | normalized binding response (PYD domain of human ASC [5]) [%] | normalized binding response (PYD domain of human ASC [6]) [%] | EC50 (PYD domain of human ASC [7]) [nM] | normalized binding response (PYD domain of human ASC [8]) [%] | normalized binding response (PYD domain of human ASC [9]) [%] | EC50 [10] [nM] | % IL-1β inhibition, mouse primary microglia, 420 nM mAb (mouse ASC [11]) [%] | normalized binding response (PYD domain of human ASC [12]) [%] | normalized binding response (PYD domain of human ASC [13]) [%] | normalized binding response (PYD domain of human ASC [14]) [%] | normalized binding response (PYD domain of human ASC [15]) [%] | EC50 (mouse ASC [16]) [nM] | Human ASC polymerization assay, IC50 [19] [nM] | Binder | other results
1 | 1.16 | 0.00069 | 598000 | 0.38 | 0.000264 | 690000 | 2 | 73 | 1 | 0.2 | 2 | 2 | 0.27 | 40 | 1 | 3 | 74 | 0 | 0.27 | 4.2 | ACI-8016-22D3A6-AB1 (antibody, V domains shown, also called 936.22D3A6; ACI-8016-22D3A6-AB1_hmG2c) VH: QAQLQQSGTELARPGSSVKLSCKASGFTFTIYGINWVKQRTGQGLEWIGEIYPRSGNTYYDEKFKGKATLTADKSTSTAYMELRSLTSEDSAVYFCARSREWEGVFWGQGTLVTVSA VL: QIVLTQSPAIMSAFPGEKVTITCSATSSVSYMHWFQQKPGTSPKLWIYSTSNLASGVPARFSGSGSGTSHSLTINRMEAEDAATYYCQQRSRYPFTFGSGTKLEIK | binding result (CARD domain of human ASC [1]): no binding; IL-1β release, human monocytic cell line, IC50 [17]: 41.1 nM; Mouse ASC polymerization assay, IC50 (mouse ASC [18]): 30.1 nM
2 | 10.3 | 0.00264 | 261000 | – | – | – | – | – | – | 0.13 | – | – | 0.12 | 69.4 | – | – | – | – | 0.15 | 5.8 | ACI-8016-23E5F7-AB1 (antibody, V domains shown, also called 936.23E5F7) VH: QVQLQQSEAELARPGASVKLSCKASGYTFTSYGIFWVKQRTGQGLEWIGEIYPRSGNTYYNENFRDKATLTADKSSSTAYMELRSLTSEDSAVYFCARQRDDYWGQGTTLTVSS VL: QIVLTQSPAIMSASPGEKVTITCSVSSSVSYMYWFQQKPGTSPKVWIYSTSNLASGVPARFSGRGSGTSYSLTISRMEAEDAATYYCQQRSSYPFTFGSGTKLEIK | Kd [20]: 27.1 nM; binding result (CARD domain of human ASC [21]): no binding; Mouse ASC polymerization assay, IC50 (mouse ASC [18]): 21 nM
3 | 0.41 | 0.000339 | 831000 | 0.27 | 0.000201 | 747000 | 6 | 73 | 0 | 0.16 | 0 | 2 | 0.19 | 87.3 | 2 | 1 | 80 | 1 | 0.27 | 10.1 | ACI-8016-2610H7D3-AB1 (antibody, V domains shown) VH: QVQLQQSGVELARPGASVKLSCKASGFSFTSYGISWVKQKTGQGLEWIGQIYLRSSNTYYSEKFKDRATLTADKSSSTVYMELRSLTSEDSAVYFCARYYGSSSDYWGQGTTLTVSS VL: DIQMNQSPSSLSASLGDTITINCHASQNINVWLSWYQQKPGNIPKVLINQASNLQTDVPTRFSGSGSGTDFKLIISRLQSEDIATYYCQQGQSYPWTFGGGTKLEIK | binding result (CARD domain of human ASC [22]): no binding; IL-1β release, human monocytic cell line, IC50 [17]: 25.2 nM; Mouse ASC polymerization assay, IC50 (mouse ASC [18]): 60.4 nM
4 | – | – | – | < 0.01 | < 1e-05 | 96000 | 47 | 3 | 83 | 0.06 | 112 | 90 | 0.1 | – | 95 | 108 | 3 | 24 | – | 3.1 | ACI-8016-401H9B7-AB1 (antibody, V domains shown) VH: QIQLVQSGPELKKPGETVKISCKASGYTFTKYGMNWVKQAPGKGLKRMGWINTYTGEPTYSDDFKGRFAFSLETSASTAYLQINNLKNDDTATYFCARLGYANSFDSWGQGTTLTVSS VL: DIQMTQSPASLSATVGETVTITCRASENIYTYLAWYQQKQGKSPQLLVHNANTLVEGVPSRFSGSGSGTQFSLKINSLEPEDFGNYYCQYHYGSPYTFGGGTKLEIK | Kd [23]: < 0.01 nM; koff [23]: 2.3e-07 s⁻¹; kon [23]: 74000 M⁻¹ s⁻¹; binding result (CARD domain of human ASC [24]): no binding; IL-1β release, human monocytic cell line, IC50 [17]: 6.94 nM
5 | 14.5 | 0.00053 | – | 14.9 | 0.0025 | 280000 | – | – | – | 0.07 | – | – | 0.07 | – | – | – | – | – | – | – | ACI-8016-416E6G4-AB1 (antibody, V domains shown) VH: QVQLKQSGPGLVQPSQSLSITCTVSGISLSSYGLHWVRQSPGKGLEWLGVIWSGGNTDYSATFISRLSISKDNSKSQVFFKMDSLQVDDTAIYYCARNEVWGQGTSVTVSS VL: not shown | Kd [23]: 0.85 nM; koff [23]: 2.7e-05 s⁻¹; kon [23]: 39000 M⁻¹ s⁻¹; kon (mouse ASC [25]): 34000 M⁻¹ s⁻¹; binding result (CARD domain of human ASC [21]): no binding; EC50 (mouse ASC [26]): 0.07 nM; Kd (mouse ASC [27]): 4.88 nM; koff (mouse ASC [27]): 0.00013 s⁻¹; kon (mouse ASC [27]): 35000 M⁻¹ s⁻¹
6 | – | – | – | – | – | – | – | – | – | – | – | – | 0.1 | – | – | – | – | – | 0.2 | – | ACI-8019-2314F6H11-AB1 (antibody, V domains shown) VH: QVQVQQSGADLARPGASVKLSCKASGYTFTNYGINWVKQRTGQGLEWIGEIYPKNIDIYYNEKFKGKATLTADKSSSTAYMELRSLTSEDSAVYFCGRSSFGFSGNYAMDYWGQGTSVTVSS VL: DVVMTQTPLSLPVSLGDQASISCRSSQNLIHSNGITYLHWYLQKPGQSPKLLIYKVSNRFSGVPHRFSGSGSGTDFTLKISRVEAEDLGVYFCSQSTHVPWTFGGGTKLEIK | Kd (mouse ASC [28]): 16.1 nM; Kd [23]: 0.91 nM; koff [23]: 8e-05 s⁻¹; kon [23]: 88000 M⁻¹ s⁻¹
